In patent US20160368961A1 (GLYTECH, published 2016):
Positions of bridges follow the written chain, without caps; N, C: chain ends. Primed or numbered codes have the meaning given here. No end group written: not given here. *: point of attachment. dimannose = dimannose sugar chain attached to the residue; GlcNAc(3) = GlcNAc attached to the Cys side chain; Biotin = O=C1N[C@H]2[C@H](CS[C@H]2CCCCC(=O)*)N1; disialo = disialo sugar chain; GlcNAc = N-acetylglucosamine

How the values were obtained:
[1] = target: somatostatin receptors SSTR1-SSTR5 (receptor not singled out in the sentence); assay: competitive radioligand binding
[2] = target: somatostatin receptor SSTR3 (Human, UniProt P32745 1-418); assay: competitive radioligand binding
[3] = target: Somatostatin receptor SSTR4 (UniProt P31391 1-388, limits assumed); assay: cell-based or functional assay
[4] = target: Somatostatin receptor SSTR1 (human recombinant, CHO-K1 cells) (human, UniProt P30872 1-391); assay: competitive radioligand binding
[5] = target: Somatostatin receptor SSTR5 (UniProt P35346 1-364, limits assumed); assay: cell-based or functional assay
[6] = target: Somatostatin receptor SSTR2 (UniProt P30874 1-369, limits assumed); assay: cell-based or functional assay
[7] = target: T1, somatostatin receptor SSTR2 (Human, UniProt P30874 1-369); assay: cell-based or functional assay
[8] = target: somatostatin receptor SSTR4 (Human, UniProt P31391 1-388); assay: cell-based or functional assay
[9] = target: somatostatin receptor SSTR1 (human) (UniProt P30872); assay: competitive radioligand binding
[10] = target: somatostatin receptor SSTR2 (human) (UniProt P30874); assay: competitive radioligand binding
[11] = target: somatostatin receptor SSTR1 (Human, UniProt P30872 1-391); assay: competitive radioligand binding
[12] = target: T1, somatostatin receptor SSTR2; assay: competitive radioligand binding
[13] = target: Somatostatin receptor SSTR3 (human recombinant, CHO-K1 cells) (human, UniProt P32745 1-418); assay: competitive radioligand binding
Sequence of Somatostatin receptor SSTR3 (human recombinant, CHO-K1 cells) (P32745 whole entry): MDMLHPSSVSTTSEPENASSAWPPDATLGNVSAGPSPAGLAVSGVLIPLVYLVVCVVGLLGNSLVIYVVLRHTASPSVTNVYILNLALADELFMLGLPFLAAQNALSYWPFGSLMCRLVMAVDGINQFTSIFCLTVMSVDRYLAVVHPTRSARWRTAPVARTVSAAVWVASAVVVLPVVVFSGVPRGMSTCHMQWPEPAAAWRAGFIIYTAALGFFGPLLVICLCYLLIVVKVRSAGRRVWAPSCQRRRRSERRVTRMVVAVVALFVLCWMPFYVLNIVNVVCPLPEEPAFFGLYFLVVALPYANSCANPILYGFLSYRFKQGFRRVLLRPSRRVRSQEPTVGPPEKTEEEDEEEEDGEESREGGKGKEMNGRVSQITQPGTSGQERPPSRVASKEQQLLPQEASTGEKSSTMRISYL

T1 sequence (P30874 whole entry): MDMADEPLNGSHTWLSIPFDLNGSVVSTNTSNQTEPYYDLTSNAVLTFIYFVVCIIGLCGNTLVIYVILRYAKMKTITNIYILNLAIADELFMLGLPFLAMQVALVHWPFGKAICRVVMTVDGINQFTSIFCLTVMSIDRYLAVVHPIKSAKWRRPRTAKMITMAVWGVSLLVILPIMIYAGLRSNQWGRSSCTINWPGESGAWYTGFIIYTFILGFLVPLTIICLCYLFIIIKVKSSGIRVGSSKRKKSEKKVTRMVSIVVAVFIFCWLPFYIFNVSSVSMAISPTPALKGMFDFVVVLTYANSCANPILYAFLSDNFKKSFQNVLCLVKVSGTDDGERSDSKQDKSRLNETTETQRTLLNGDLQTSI
Sequence of Somatostatin receptor SSTR2 (P30874 whole entry): as above
Sequence of somatostatin receptor SSTR3 (P32745 whole entry): as the sequence (P32745 whole entry) above
Sequence of somatostatin receptor SSTR4 (P31391 whole entry): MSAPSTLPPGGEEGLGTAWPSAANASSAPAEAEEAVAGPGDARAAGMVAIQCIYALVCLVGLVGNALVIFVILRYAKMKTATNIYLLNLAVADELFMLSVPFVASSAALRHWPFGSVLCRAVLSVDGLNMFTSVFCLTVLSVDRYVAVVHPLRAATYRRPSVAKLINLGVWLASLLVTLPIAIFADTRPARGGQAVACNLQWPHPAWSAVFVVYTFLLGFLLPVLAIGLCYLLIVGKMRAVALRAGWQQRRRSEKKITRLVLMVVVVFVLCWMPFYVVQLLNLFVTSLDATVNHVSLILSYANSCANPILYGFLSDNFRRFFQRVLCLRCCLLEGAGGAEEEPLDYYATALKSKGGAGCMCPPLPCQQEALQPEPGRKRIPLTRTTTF
Sequence of Somatostatin receptor SSTR4 (P31391 whole entry): as above
Sequence of somatostatin receptor SSTR1 (human) (P30872 whole entry): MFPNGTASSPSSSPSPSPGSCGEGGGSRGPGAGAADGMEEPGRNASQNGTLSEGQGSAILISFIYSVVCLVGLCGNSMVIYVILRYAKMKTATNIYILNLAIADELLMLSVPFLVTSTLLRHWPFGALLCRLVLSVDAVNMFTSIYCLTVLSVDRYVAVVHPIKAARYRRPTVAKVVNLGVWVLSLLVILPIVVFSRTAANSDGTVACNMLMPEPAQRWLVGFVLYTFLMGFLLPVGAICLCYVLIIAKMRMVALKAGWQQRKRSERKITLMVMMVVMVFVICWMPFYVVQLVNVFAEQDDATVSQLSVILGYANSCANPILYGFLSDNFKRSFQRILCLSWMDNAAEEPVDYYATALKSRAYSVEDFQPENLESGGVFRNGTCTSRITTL
Sequence of somatostatin receptor SSTR1 (P30872 whole entry): as above
Sequence of Somatostatin receptor SSTR1 (human recombinant, CHO-K1 cells) (P30872 whole entry): as above
Sequence of somatostatin receptor SSTR2 (human) (P30874 whole entry): as the sequence (P30874 whole entry) above
Sequence of Somatostatin receptor SSTR5 (P35346 whole entry): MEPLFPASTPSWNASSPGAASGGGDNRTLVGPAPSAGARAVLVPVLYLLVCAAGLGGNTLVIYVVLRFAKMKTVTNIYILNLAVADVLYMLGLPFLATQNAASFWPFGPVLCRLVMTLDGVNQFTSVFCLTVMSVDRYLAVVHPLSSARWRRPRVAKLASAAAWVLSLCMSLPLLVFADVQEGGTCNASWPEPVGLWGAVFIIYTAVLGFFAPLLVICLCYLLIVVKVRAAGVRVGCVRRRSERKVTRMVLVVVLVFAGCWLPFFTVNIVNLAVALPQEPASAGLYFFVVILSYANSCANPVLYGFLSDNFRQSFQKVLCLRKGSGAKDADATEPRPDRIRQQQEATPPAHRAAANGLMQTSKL

**Q.** With “S1C(disialo).N5C(disialo)-SRIF28 (peptide)” as the molecule, how does the ratio of Ki to the Ki of unglycosylated SRIF14 [1] read?
**A.** The ratio of Ki to the Ki of unglycosylated SRIF14 was 15.7 ratio (:1).

**Q.** With Biotin-C(disialo sugar chain)ANSNPAMAPRERKAGCKNFFWKTFTSC (disulfide 17-28) [Biotin-S1C(disialo)-SRIF28] as the molecule, how does the Ki [2] read?
**A.** The Ki was 1 nM.

**Q.** How did the “IC50 of cAMP production suppressing action (agonist activity)” value (“IC50 … (agonist activity)” for short) [3] turn out when C(diGlcNAc sugar chain)ANSNPAMAPRERKAGCKNFFWKTFTSC (disulfide 17-28) [S1C(diGlcNAc)-SRIF28] was run?
**A.** Its value is 0.05 nM.

**Q.** For SANSC(disialo)PAMC(disialo)PRERKAGCKNFFWKTFTSC (disulfide 17-28) [N5C(disialo).A9C(disialo)-SRIF28], which IC50 [4] is on record?
**A.** The IC50 was 30 nM.

**Q.** C(disialo sugar chain)ANSC(disialo sugar chain)PAMAPRERKAGCKNFFWKTFTSC (disulfide 17-28) [S1C(disialo).N5C(disialo)-SRIF28] was tested. Which “IC50 … (agonist activity)” value [5] did it give?
**A.** The value was 0.09 nM.

**Q.** With C(disialo sugar chain)ANSC(disialo sugar chain)PAMC(disialo sugar chain)PRERKAGCKNFFWKTFTSC (disulfide 17-28) [S1C(disialo).N5C(disialo).A9C(disialo)-SRIF28] as the molecule, how does the fold difference in Ki against the glycosylated forms of Examples 1 and 21 [1] read?
**A.** The fold difference in Ki against the glycosylated forms of Examples 1 and 21 was 10 fold.

**Q.** Which “IC50 … (agonist activity)” value [6] does the source give for C(disialo sugar chain)ANSNPAMAPRERKAGCKC(GlcNAc)FFWKTFTSC (disulfide 17-28) [S1C(disialo).N19C(GlcNAc)-SRIF28] here?
**A.** The value was 0.08 nM.

**Q.** With C(disialo sugar chain)ANSNPAMAPRERKAGCKNFFWKTFTSC (disulfide 17-28) [S1C(disialo)-SRIF28] as the molecule, how does the “IC50 … (agonist activity)” value [7] read?
**A.** The value was 0.075 nM.

**Q.** What about the “IC50 … (agonist activity)” value [8] of the same molecule?
**A.** The value was 0.065 nM.

**Q.** For SANSNPAMAPRERKAGCKNFFWKTC(disialo)TSC (disulfide 17-28) [F25C(disialo)-SRIF28], which Ki as fold of that of SRIF14 [9] is on record?
**A.** The Ki as fold of that of SRIF14 was 310 to 5300 fold.

**Q.** And the Ki as fold of that of SRIF14 [10]?
**A.** The Ki as fold of that of SRIF14 was 310 to 5300 fold.

**Q.** What about the Ki [11] of the same molecule?
**A.** The Ki was greater than 828 nM.

**Q.** And the Ki [12]?
**A.** Its Ki is greater than 531 nM.

**Q.** What about the Ki [2] of the same molecule?
**A.** Its Ki is greater than 342 nM.

**Q.** N(disialo sugar chain)ANSNPAMAPRERKAGCKC(dimannose)FFWKTFTSC (disulfide 17-28) [S1N(disialo).N19C(diMan)-SRIF28] was tested. Which Ki [12] did it give?
**A.** The Ki was 3 nM.

B1: 29C(disialo)-SRIF28 (peptide)
peptide: SANSNPAMAPRERKAGCKNFFWKTFTSCC
modifications: disialo sugar chain attached Cys added after Cys28 (position 29); disulfide bond Cys17-Cys28
**Q.** B1 was tested. Which IC50 [13] did it give?
**A.** Its IC50 is 7 nM.

**Q.** Which Ki [12] does the source give for C(disialo sugar chain)ANSNPAMAPRERKAGCKNFFWKTFTSC-NH2 (disulfide 17-28) [S1C(disialo)-SRIF28-amide] here?
**A.** Its Ki is 0.7 nM.

**Q.** Which “IC50 … (agonist activity)” value [6] does the source give for C(GlcNAc(3))ANSNPAMAPRERKAGCKNFFWKTFTSC (disulfide 17-28) [S1C(GlcNAc)-SRIF28] here?
**A.** Its value is 0.04 nM.
